Target: T1, GST-PTPMT1 (human) (UniProt Q8WUK0)
T1 sequence: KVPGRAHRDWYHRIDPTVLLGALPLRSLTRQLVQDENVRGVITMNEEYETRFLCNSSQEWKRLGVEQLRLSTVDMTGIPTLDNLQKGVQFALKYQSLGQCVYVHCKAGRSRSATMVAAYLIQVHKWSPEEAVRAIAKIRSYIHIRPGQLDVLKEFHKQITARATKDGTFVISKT

“FLAG-MK-STYX (from UniProt Q9Y6J8-1 2-313) (natural protein)” showed a reduction of PTPMT1 phosphatase activity towards OMFP, compared to FLAG protein alone; MK-STYX incubated with GST-PTPMT1 at 1:1 (51%) to 2:1 (60%) mass ratio of 60%.
